Assay [1] deals with UACC-257X2.2 melanoma xenograft. The experiment in a line: In vivo efficacy, subcutaneous melanoma xenograft, tumor volume / % TGI. Further details: species or system mice. The conditions noted are these: for % TGI Single Agent BRAFi vs. control / % TGI Single Agent Anti-ETBR ADC vs. control: UACC257-X2.2. The method, then: (§1) Next, efficacy studies were performed using the melanoma cells lines in the xenografts mouse models described above. All studies were conducted in accordance with the Guide for the Care and Use of Laboratory Animals (Ref: Institute of Laboratory Animal Resources (NIH publication no. 85-23), Washington, D.C.: National Academies Press; 1996). 10- to 14-week-old female CRL Nu/Nu or NCr nude mice from Charles River Laboratories were inoculated subcutaneously in the dorsal right flank with either 5×10^6 UACC-257X2.2 cells in HBSS with Matrigel or 5×10^6 A2058 cells in HBSS with Matrigel. When tumor volumes reached approximately 200 mm^3 (day 0), animals were randomized into groups of 10 each.
(§2) For single agent efficacy studies, the anti-ETBR ADC candidate Hu5E9v1-ADC was administered as a single intravenous (IV) injection on day 0 at 1 mpk, 3 mpk, or 6 mpk (mg/kg). A control ADC antibody and vehicle control were also administered. Average tumor volumes with standard deviations were determined from 10 animals per group. Tumor volumes were measured twice per week until study end.
To do this, the in vivo efficacy for various combinations of Hu5E9v1-ADC and BRAFi-945 were evaluated against the UACC-257X2.2 melanoma model described above. Tumors were grown to an average size of approximately 200 mm^3, whereupon animals were randomized into groups of 10 each. An appropriate vehicle control (Klucel LF) or BRAFi-945 at doses of 1 mpk, 6 mpk or 20 mpk were administered orally once a day×21 days beginning on study Day 0. A single 1 mpk or 3 mpk dose of Hu5E9v1-ADC or control, a histidine buffer #8, was administered intraveneously (after two doses of 945) via tail vein at study Day 1.
(§3) The average tumor volumes were determined from 10 animals per group. Tumor volumes were measured twice per week until study end. Tumor volumes were measured in two dimensions (length and width) using UltraCal IV calipers (Model 54 10 111, Fred V. Fowler Company; Newton, Mass.). The following formula was used with Excel, version 12.2.8 (Microsoft; Redmond, Wash.) to calculate tumor volume: Tumor Volume (mm3)=[…]
(§4) To analyze the repeated measurement of tumor volumes from the same animals over time, a mixed-modeling Linear Mixed Effects (LME) approach was used (Pinheiro et al. 2009). This approach can address both repeated measurements and a modest drop-out rate due to non-treatment-related termination of animals prior to study end. Cubic regression splines were used to fit a non-linear profile to the time courses of log 2 tumor volume at each dose level. These non-linear profiles were then related to dose within the mixed model. Tumor growth inhibition (TGI) as a percentage of vehicle was calculated as percent area under the fitted curve (AUC) per day in relation to the vehicle, using the following formula:
(§5) Using this formula, a TGI value of 100% indicates tumor stasis, of >1% but <100% indicates tumor growth delay, and of >100% indicates tumor regression. To get uncertainty intervals (UIs) for % TGI, the fitted curve and the fitted covariance matrix were used to generate a random sample as an approximation to the distribution of % TGI. The random sample is composed of 1000 simulated realizations of the fitted-mixed model, where the % TGI has been recalculated for each realization. Here, in the reported UI is the value for which 95% of the time, the recalculated values of % TGI will fall in this region given the fitted model. The 2.5 and 97.5 percentiles of the simulated distribution were used as the […] UIs.

For assay [2], the target named is T1, ETBR (Homo sapiens, UniProt P24530).
T1 sequence (P24530 27-442): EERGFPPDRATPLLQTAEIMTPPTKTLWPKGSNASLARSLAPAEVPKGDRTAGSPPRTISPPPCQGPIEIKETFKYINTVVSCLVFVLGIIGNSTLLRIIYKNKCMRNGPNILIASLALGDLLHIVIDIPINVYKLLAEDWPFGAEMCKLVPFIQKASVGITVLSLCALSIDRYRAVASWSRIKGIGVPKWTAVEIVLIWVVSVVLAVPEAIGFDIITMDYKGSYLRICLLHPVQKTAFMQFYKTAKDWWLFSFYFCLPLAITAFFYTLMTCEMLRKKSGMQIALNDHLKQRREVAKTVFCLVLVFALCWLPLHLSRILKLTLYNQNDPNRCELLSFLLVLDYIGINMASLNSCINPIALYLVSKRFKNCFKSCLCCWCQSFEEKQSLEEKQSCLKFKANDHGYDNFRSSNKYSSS
In words: Scatchard analysis of antibody binding sites per cell with 125I-labeled Hu5E9v1-ADC. The conditions noted are these: 4 h on ice, estimated. The procedure:
A determination of antibody binding sites per cell was performed (Scatchard analysis): The affinity constant and the number of cell surface binding sites for each antibody were estimated by incubating the melanoma cells for 4 h on ice with a fixed concentration of ^125I-labeled Hu5E9v1-ADC combined with increasing concentrations of unlabeled Hu5E9v1-ADC. The data were analyzed by nonlinear curve fitting using an analysis program method.

Assay [3] concerns A2058 melanoma cell line. The experiment in a line: In vitro cell killing, CellTiter-Glo cell viability. The conditions noted are these: A2058 (low ETBR copy number), 5 days. It counts as cell-based, human. The procedure: (§6) The melanoma cell lines A2058 and UACC-257X2.2 were grown in appropriate media at 37° C. and 5% CO2. To assess the effects of Hu5E9v1-ADC on cell viability, cells were plated at 1,500 per well in 50 μL, of normal growth medium in 96-well clear-bottom black plates. Twenty-four hours later, an additional 50 μL, of culture medium with serial dilutions of Hu5E9v1-ADC concentrations was added to triplicate wells. Five days later, cell survival was determined using CellTiter-Glo Luminescent Cell Viability Reagent (G7572; Promega Corporation) and with an EnVision 2101 Mutilabel Reader (Perkin-Elmer).

Assay [4] relates to UACC-257X2.2 melanoma cell line. The description is as above. Particulars: UACC-257X2.2 (high ETBR copy number), 5 days. The class given is cell-based, human. The procedure:
as §6

Assay [5] relates to A2058 melanoma xenograft. The experiment in a line: In vivo efficacy, subcutaneous melanoma xenograft, tumor volume / % TGI. Further details: species or system mice. The conditions noted are these: for % TGI Single Agent Anti-ETBR ADC vs. control: A2058. The procedure:
as §1, §2, §3, §4, §5
Tumors were grown to an average size of approximately 200 mm^3, whereupon animals were randomized into groups of 10 each. […] A single dose of Hu5E9v1-ADC at either 3 mpk or 6 mpk or control, a histidine buffer #8, was administered intraveneously into the tail vein on day 1 (after three doses of RG7204).
To do this, the in vivo efficacy for various combinations of Hu5E9v1-ADC and MEKi-623 and/or MEKi-973 were evaluated against A2058 and SK-MEL-23 and IPC-298 melanoma in vivo models, performed as described above in Example 4. An appropriate methylcellulose tween vehicle control (0.5% methylcellulose, 0.2% Tween-80 (MCT) or MEK inhibitor at doses of 1 mpk, 3 mpk or 7.5 mpk were administered orally once a day×21 days beginning on study Day 0. A single 3 mpk or 6 mpk dose of Hu5E9v1-ADC or control, a histidine buffer #8, was administered intraveneously (after two doses of a MEK inhibitor) via tail vein at study Day 1.

The subject of assay [6] is COLO 829 melanoma xenograft. The description is as above. Further details: species or system mice.
Procedure: The average tumor volumes were determined from 10 animals per group. Tumor volumes were measured twice per week until study end. Tumor volumes were measured in two dimensions (length and width) using UltraCal IV calipers (Model 54 10 111, Fred V. Fowler Company; Newton, Mass.). The following formula was used with Excel, version 12.2.8 (Microsoft; Redmond, Wash.) to calculate tumor volume: Tumor Volume (mm3)=(length×width)×0.5
To get uncertainty intervals (UIs) for % TGI, the fitted curve and the fitted covariance matrix were used to generate a random sample as an approximation to the distribution of % TGI. The random sample is composed of 1000 simulated realizations of the fitted-mixed model, where the % TGI has been recalculated for each realization. Here, in the reported UI is the value for which 95% of the time, the recalculated values of % TGI will fall in this region given the fitted model. The 2.5 and 97.5 percentiles of the simulated distribution were used as the upper and lower UIs.
The COLO 829 xenograft model was chosen as representative of medium levels of ETBR expression, further increasing the stringency of the combination studies. Tumors were grown to an average size of approximately 200 mm^3, whereupon animals were randomized into groups of 9 each. An appropriate vehicle control (Klucel LF) or G00044364.1-12 (RG7204) at doses of 10 mpk or 30 mpk were administered orally twice a day for 21 days starting on day 0.
Where [7] appears, read: Anti-ETBR ADC single dose 1 mg/kg.
Where [8] appears, read: Anti-ETBR ADC single dose 3 mg/kg.

Regarding `Nc1ncnc2c(C(=O)Nc3c(Cl)ccc(NS(=O)(=O)CCCF)c3F)csc12` [BRAFi-945, 4-amino-N-(6-chloro-2-fluoro-3-(3-fluoropropylsulfonamido)phenyl)thieno[3,2-d]pyrimidine-7-carboxamide], the “% TGI Single Agent BRAFi vs. control” value in assay [1] (BRAFi Qdx21 1 mg/kg) is given as 66%; in assay [1] (BRAFi Qdx21 6 mg/kg) it was 109%; in assay [1] (BRAFi Qdx21 20 mg/kg), 136%.

B1: Hu5E9v1-ADC: anti-ETBR antibody Hu5E9v1 conjugated to MMAE through a vc linker (antibody drug conjugate) (conjugate)
VH: EVQLVESGGGLVQPGGSLRLSCAASGYTFTSYWMQWVRQAPGKGLEWIGTIYPGDGDTSYAQKFKGRATLSTDKSKNTAYLQMNSLRAEDTAVYYCARWGYAYDIDNWG
VL: DIQMTQSPSSLSASVGDRVTITCKSSQSLLDSDGKTYLNWLQQKPGKAPKRLIYLVSKLDSGVPSRFSGSGSGTDFTLTISSLQPEDFATYYCWQGTHFPYTFGQGTKVEIK
Regarding B1, the results for the “number of Hu5E9v1-ADC binding sites” value in assay [2] (A2058 cells) and in assay [2] (UACC-257X2.2 cells) were 1,582 sites per cell and 33,939 sites per cell, respectively. Besides, the “cell killing by ADC titration relative to control ADC” value in assay [3] and in assay [4] was “specific cell killing relative to control ADC” throughout. Besides, the “% TGI Single Agent Anti-ETBR ADC vs. control” value in assay [1] (setting [7]) worked out at 69%; in assay [1] (setting [8]) it was 112%; in assay [5] (setting [8]) it was 39%; in assay [5] (Anti-ETBR ADC single dose 6 mg/kg) it was 85%; in assay [6] (setting [7]), 31%; in assay [6] (setting [8]), 33%. For the same molecule, the “single agent efficacy, tumor volume” value in assay [1] (single IV dose 1 mg/kg on day 0) is given as “efficacy was not apparent”; in assay [1] (single IV dose of 3 and 6 mg/kg on day 0), “sustained tumor regression”. The “single agent efficacy, tumor burden” value in assay [5] (single IV dose 3 mg/kg) is listed as “Efficacy was not apparent”; in assay [5] (single IV dose 6 mpk, relative to matching dose of control ADC or vehicle) it was “partial reduction in tumor burden”.

Source of the values: patent publication US20140341916A1, “THERAPEUTIC COMBINATIONS AND METHODS OF TREATING MELANOMA” (Genentech, Inc., priority 2011, published 2014).
